The text below walks through data of US20110060580A1 (published 2011).

The labels stand for the following.
B1: human LXRβ-LBD (liver X receptor beta ligand binding domain, amino acids 213-461 of Seq. Id. No. 1) (receptor)
chain: GEGEGVQLTAAQELMIQQLVAAQLQCNKRSFSDQPKVTPWPLGADPQSRDARQQRFAHFTELAIISVQEIVDFAKQVPGFLQLGREDQIALLKASTIEIMLLETARRYNHETECITFLKDFTYSKDDFHRAGLQVEFINPIFEFSRAMRRLGLDDAEYALLIAINIFSADRPNVQEPGRVEALQQPYVEALLSYTRIKRPQDQLRFPRMLMKLVSLRTLSSVHSEQVFALRLQDKKLPPLLSEIWDVHE
notes: The His tag was removed by thrombin before crystallization; Id; No. 1; Each crystal also held a small-molecule agonist; also called LXR-LBD; hLXRbeta213G-460E

The target in series [1] is B1. Description: X-ray co-crystal structure (Example 3, space group P1). The method, then: Protein used for crystallization of LXRβ-LBD together with - (R,S)-Benzenesulfonyl-(6chloro-2,3,4,9-tetrahydro-1H-carbazol-2-yl)-fluoro-acetic acid methyl ester has been purified as described above. The protein was incubated with ligand in a 15-fold molar excess for 2 hours at room temperature. A short co-activator peptide ([…]) (Seq. Id. No. 4) from SRC-1 was added in 3-fold molar excess and incubation continued overnight at 4 ° C. Prior to crystallization experiments the protein was concentrated to 12 mg/ml and centrifuged at 20000 ×g. The crystallization droplet was set up at room temperature by mixing 1.5 μl of protein solution with 0.5 μl reservoir solution in vapour diffusion hanging drop experiments. Crystals appeared out of 0.1 M Bis-Tris pH 5.5, 0.2 M (NH⁴⁾²SO₄, 25% PEG 3350 after 1 day and grew to final size of 0.2 mm×0.1 mm×0.05 mm within 2 days.
Crystals were harvested with paraffin oil as cryoprotectant and then flash frozen in a 100 K N₂ stream. Diffraction images were collected at a temperature of 100 K at the beamline X06SA of the Swiss Light Source and processed with the programs DENZO and […] yielding data to a resolution of 2.3 Å. Standard crystallographic programs from the CCP4 software suite were used to determine the structure by molecular replacement using an in-house LXR-LBD structure as search model. […]

Series [2] concerns the target B1. Description: X-ray co-crystal structure (Example 1, space group P43). As for the experimental part:
(§1) Protein used for crystallization of LXRβ-LBD together with 2-(4-{[2-(3-Chloro-phenyl)-5-methyl-oxazol-4-ylmethyl]-ethyl-amino }-phenyl)-1,1,1,3,3,3-hexafluoro-propan-2-ol has been purified as described above. The protein was incubated with ligand in a 12-fold molar excess for 2 hours at room temperature. A short co-activator peptide ([…]) (Seq. Id. No. 3) from SRC-1 was added in 12-fold molar excess and incubation continued overnight at 4 ° C. Prior to crystallization experiments the protein was centrifuged at 20000× g. The crystallization droplets were set up at 22 ° C. by mixing 1.5 μl of protein solution with 0.5 μl reservoir solution in vapour diffusion hanging drop experiments. Crystals appeared out of 0.2 M (NH₄)₂SO₄, 25% PEG 3350 after 1 day and grew to final size of 0.15 mm×0.15 mm×0.05 mm within 2 days.
(§2) Crystals were harvested with paraffin oil as cryoprotectant and then flash frozen in a 100 K N2 stream. Diffraction images were collected at a temperature of 100 K at the beamline X06SA of the Swiss Light Source and processed with the programs DENZO and […] yielding data to a resolution of 3.2 Å. Standard crystallographic programs from the CCP4 software suite were used to determine the structure by molecular replacement using an in-house LXRβ-LBD structure as search model. Refinement and model building cycles were performed with REFMAC and MOLOC, respectively (Table 1).

Series [3] deals with the molecule itself. Kind of series: X-ray co-crystal structure (Example 1); homodimer. The method, then:
as §1, §2

For the molecule ERHKILHRLLQEG (13-residue peptide from SRC-1) [short co-activator peptide (ERHKILHRLLQEG) (Seq. Id. No. 4) from SRC-1], the binding result in series [1] is listed as “binds”. KDHQLLRYLLDKD (13-residue peptide from SRC-1) [short co-activator peptide (KDHQLLRYLLDKD) (Seq. Id. No. 3) from SRC-1]: the binding result in series [2] was “binds”. B1: the binding result in series [3] is on record as “binds”.
